Assay results taken from the nanobody polyreactivity screen of Harvey et al. (2022).

Assay: yeast display, Sf9 membrane polyspecificity reagent, FACS + sequencing; frameworks hold sequencing errors
Procedure, shortened: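 Genes from sorted yeast were amplified by colony PCR, read by MiSeq 2 × 250 sequencing and filtered on CDR length. These cells carried a synthetic nanobody library in Saccharomyces cerevisiae BJ5465 and were sorted by FACS into low and high (top ~1%) gates on anti-HA and streptavidin fluorescence. Polyreactivity is labelled according to the gate of origin.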

Sequence | polyreactivity (PSR sort gate)
QVQLVESGGGLVQAGGSLRLSSAASGSTSFQNAMGWYRQATGKEREFVAAISGSGDRTNYADSVKGRFTISRDNAMYTVYVQMNSLKPEDTAVYYCAAVRGYPPSNYYYWGQGTQVTVSS | high polyreactivity
QVQLVESGGGLVQAGGSLRLSSAASGSTYDFKAMGWNRQAHGKERELFAAITGSGGSTDNADSVKGRFTISRDNAKNSVYLQMNSLKPEDTAVYYCNAGKTFDYRDGVGYDHWGQGTQVTVSS | low polyreactivity
QVQLVESGGGLVQAGGSLRLSSAASGYIFTYYTMGCSRQAPGKERELVAAITYSGSRTRYADSVKGRFTISRDNAKNTVYLQMNSLKPEDNAVYYCAAVYRLKSGGEWRDSQFGYWGQGTQVTVSS | high polyreactivity
QVQLVESGGGLVQAGGSLRLSSAGSGSIFTGYAMGWYRPAPGKERELVAAIRTRGGSTYYADSVKGRFTISRDNAKNTVYLQMNSLKPEDNAVYYCANRYFGWYGNFDDWGQGTQVTVSS | high polyreactivity
QVQLVESGGGLVQAGGSLRLSSASSGFTFSYYAMGWSRPAPGKERELVAAITSDGGRTYYADSVKGRFTISRDNAKNTVYLQMNSLKPEDTAVYYCAARTRYRGIKGYNYWGQGTQVTVSS | high polyreactivity
QVQLVESGGGLVQAGGSLRLSSASSGSIFYVYAMGWYRQAPGKERELVAAIYSGASTYYADSVKGRFTISRDNAKNSVYLQMNSLKPEDTAVYYCADERYFYEYDYWGQGTQVTVSS | low polyreactivity
QVQLVESGGGLVQAGGSLRLSSDASGSIFHTYAMGWYRQAPGKERELVAAITVSGGDTYYADSVKGRFTISRDNAKNTVYLQKISLKAEDTAVYYCAVDTTTSYTVEYDYWGQGTQVTVSS | low polyreactivity
QVQLVESGGGLVQAGGSLRLSSPASGRTFPGNPMGWYRQAPGKLRELVAAITRVRSTYYADSVKGRFTISRDNAKNTVYLQMNWLKPEDTVVYYCAADRLEGSYEDDATGFDDWGQGTQVTVSS | low polyreactivity
QVQLVESGGGLVQAGGSLRLSSSASGSTFWYYVRGRYRQAPGKERELVAAISTRGDSTYYADSVKGRFTISRDNAKNSVYLQINSLKPEDTAVYYCAKSRQSSGRVRFDYWGQGTEVTVSS | low polyreactivity
QVQLVESGGGLVQAGGSLRLSTAASGSTLWYNDMGWFRKAPGKERELVASITSDGGSSTYADSVKGRFTISRDNEKNTVYLQMNSLKPEDTAVYYCAADWPIVQYDYWGQGTQVTVSS | low polyreactivity
QVQLVESGGGLVQAGGSLRLSWAASGFIFPYNAMGWYRQAPGKERELVAVISSSGGDTYYADSVKGRFTISRDNAKNTVYLQMNSLIPVDTAVYYCAADSYYGYEYWGQGTQVTVSS | low polyreactivity
QVQLVESGGGLVQAGGSLRLSWAASGGNFEYNAMGWYRQAPGKERELVAAITNGGSTNYADSVKGRFSISRDNAKNTVYIQMNSLKPDDTAVYYCATVFFVLPPTRFASWGQGTQVTVSS | low polyreactivity
QVQLVESGGGLVQAGGSLRLSWAASGRTFDYNAMGWYRQAPGKERELVAAITSSGGSTYYADSVKGRFTISRDNAKNTVYLQMNSLKPEDTAVYYCDTDGQSPYYIYYWGQGTQVTVSS | low polyreactivity
QVQLVESGGGLVQAGGSLRLSWAASGSIFGLNALGWYRQAPGKERELVADITSGGGNTYSADSVKGRFTISRDNAKNTVYLQMNSLKPEDTAVYYCNADYDLYFSGWYDYWGQGTQVTVSS | low polyreactivity
QVQLVESGGGLVQAGGSLRLSWAASGSIFTLNAMGWYRQAPGKERELVAAIRWSGGSTYYADSVKGRFTISRDNAKNTGYLQRNRLKPEDTAVYYCAAKYPSDYYSPGFKYWGQGTQVTVSS | high polyreactivity
QVQLVESGGGLVQAGGSLRLSWAASGSKSCADVMGWYRPEPGKERELLAAISSGTSTYYADSVKGRFTISRDNAKNTVYLQMNSLKPEDTGVYYCAAYYYSYPTNGGYGYCGQGTQVTVSS | low polyreactivity
QVQLVESGGGLVQAGGSLRLSWAASGSSFGYAMGWYRQGPGKERELVAAISFSGVSTYYADSVKGRFTISRDNAKHTVYLQMNSLKPEDTAVYYCNAYSDGDEDYWGQGTQVTVSS | low polyreactivity
QVQLVESGGGLVQAGGSLRLSWAASGSTFVHNAMGWYIQAPGKERELVAGISRTGGSTYYADSVKGRFTISRDNAKNTVYLQMNSLKPEDTAVYYCAVRYPRSWQFDYWGQGTQVNVSS | high polyreactivity
QVQLVESGGGLVQAGGSLRLSWAASGSTLLSNAMGWSTQAPGKERELVAAINYSGGRTYYADSVKGRFTISRDHAQNTVYLQMNSLKPEDTAVYYCNALSSGHGSSSRYDYWGQGTQVTVSS | low polyreactivity
QVQLVESGGGLVQAGGSLRLSYAASGSTFRVYAMGWYRQAPGKERELVAAISRSGGRTYYADSVKGRFTISRDNAKNTVYLQMNSLKPEDTAVYYCAADYKYTAVSDDYWGQGTQVTVSS | high polyreactivity
QVQLVESGGGLVQAGGSLRLSYAPSGRTFGYYAMGWYRQAPGKERELVAAIRSTGSTNYADSVKGRFTISRDNAKNTVYLQMNRLKPEDTAVYYCNAKRRFRYDYWGQGTQVTVSS | low polyreactivity
QVQLVESGGGLVQAGGSLRLTCAASAFIYRRNAMGSYRQAPGKERELVAAITGGGGSTYYADSVKGSFTISRDNAKNTVYLQMNSLKPEDTAVYYCAVDLSRLYNRGGDYWGQGTQVTVSS | high polyreactivity

Sequence | polyreactivity (PSR sort gate)
QVQLVESGGGLVQAGGSLRLTCAASARTFFRNTMGSYRQATGKERELVATISWSGGSTNSADSVKGRFTISRDNAKNTVSLQMNSLKPEDTAVYYCAAVDYDTSIYDRPGGFDYWGQGTQVTVSS | low polyreactivity
QVQLVESGGGLVQAGGSLRLTCAASGFIFKIYARGWYRQAPGKERELVARITRSGGSTYYADSVKGRFTISRDNAKNTVYLQMNSLKPEDTAVYSCNAELFRYVRYDYWGQGTQVTVSS | high polyreactivity
QVQLVESGGGLVQAGGSLRLTCAASGFIFQYYAMGWYRQAPGKEREFVAAISSSGTSTYYADSVKGRFTISRDNAKNTVYLQMNSLKPEDTAVYYCAAREAGLYWLYYPGLRYYYWGQGTQVTVSS | high polyreactivity
QVQLVESGGGLVQAGGSLRLTCAASGFIFRSYAMGWYRQAPGKERELVAAINSRAGNTYYADSVKGRFTISRDNAKNTVYLQMNSLKPEDTAVYYCAVRSYSPRSRGMGYWGQGTQVTVSS | high polyreactivity
QVQLVESGGGLVQAGGSLRLTCAASGFTFGVYAMGWYRQAPGKERELVAAIDDGTNTYYADSVKGRFTISRDNAKNTVYLQMNSLKPEDTAVYYCNADDPYYIAEQSWSESDYWGQGTQVTVSS | low polyreactivity
QVQLVESGGGLVQAGGSLRLTCAASGFTFSGYAMGWYRQAPGKERELVAAISSSGASTYYADSVKGRFRISRDNAKYTVYLQMNSLNPEDTAVYYCNTLYYFPYLWPYDYWGQGTQVTVSS | high polyreactivity
QVQLVESGGGLVQAGGSLRLTCAASGFTLDVNAMGWYRQAPGKERELVATISWGGASTYYADSVKGRFTISRDNAKNTVYLQMNSLKPEDTAVYYCAAQYYYPDDKGGYDYWGQGTQVTVSS | low polyreactivity
QVQLVESGGGLVQAGGSLRLTCAASGGTFVYNAMGWYRKAPGKERELVAAISRGGTRTYYADSVKGRFTISRDNAKNTVYLQMNSLKPEDTAVYYCNAEVNTNYRIADYDYWGQGTQVTVSS | high polyreactivity
QVQLVESGGGLVQAGGSLRLTCAASGGTLRYYGMGWYRQAPGKEWEFVAAISWSGDSTYYADSVKGRFTISRDNAKTTVYLQMNSLKPEDTAVYFCAATYYLTYYYGQANHGYDYWGQGTQVTVSS | low polyreactivity
QVQLVESGGGLVQAGGSLRLTCAASGINCVWYAMGWYRQAPGKERELVAAIRSGGITNYADSVKGRFTISRDNAQNTVYLQMNSLKPEDTAVYYCAAPYRTDTGDDYWGQGTQVTLSS | low polyreactivity
QVQLVESGGGLVQAGGSLRLTCAASGITFRAYVMGWYRQEPGKERELVAAINRRGGSTYYADSVKGRFTISRDNAKNTVYLQMNSLKPEDTAVYYCAAGLYSTGYTYDYWGQGTQVTVSS | high polyreactivity
QVQLVESGGGLVQAGGSLRLTCAASGLIFYRYAMGWYRQAPGKERELVATMSRSGGTYADSVKGRFTISRDNAKNTVYLQMNSLKPEDTAVYYCNARTLYAYITRDYWGQGTQVTVSS | high polyreactivity
QVQLVESGGGLVQAGGSLRLTCAASGLTFDSNVMGWYRQAPGKERELVAAITASGGRTYYADSVKGRFTISRDNAKNTVYLQMNSLKPEDTAVYYCAADSRSAYDYWGQGSQVTVSS | high polyreactivity
QVQLVESGGGLVQAGGSLRLTCAASGLTFGLYAMGWYRQAPGKERELVAAITRGDSTNYADSVKGRFTISRDNAKNTVYLQMNSLKPEDTAVYYFNAVRTYWWGYNQQYNYWGQGTQVTVSS | high polyreactivity
QVQLVESGGGLVQAGGSLRLTCAASGLTFYFYTMGWYRQAPGKERELVAAIRSAGRTNYADSVKGRFTISRDNAKNTVYLQMNSLKPEDTAVYYCAAISPGYYRIVWYDYWGQGTQVTVSS | high polyreactivity
QVQLVESGGGLVQAGGSLRLTCAASGNTFTTNVMGWYRQAPGKERELVARISWSGTSTSYADSVKGRFTISRDNAKNTVYLQMNSLKPEDTAVYYCAVGGIVHIRSRAQQEYYYWGHGTQVTVSS | high polyreactivity
QVQLVESGGGLVQAGGSLRLTCAASGRIFPVYAMGWYRQAPGKERELVAAISGSGGSTYYADSVKGRFTISRDNAKKSVYLQMNSLKPEDTAVYYCAAVTTPRFSIGYEYWGQGTQVTVSS | low polyreactivity
QVQLVESGGGLVQAGGSLRLTCAASGRIFRVNTMGWYRQAPGKERELVATINGRGGSTYYADSVKGRFTISRDNAKNTVYLQMNSLKPVDTSVYYCAARARTTRSATYDYWGQGTQGTVSS | high polyreactivity
QVQLVESGGGLVQAGGSLRLTCAASGRIFRYYAMGWYRQAPGKERELVATISRGGSTTYADSVKGRFTISRDNAKNTVYLQMNSLKPEDTAVYYCDARFGSTYDYWGQGTQVTVSS | low polyreactivity
QVQLVESGGGLVQAGGSLRLTCAASGRIFSYYAMGWYRPAPGKERELVAAISSSGGSTYYADSVKGRFTISRDNAKNTVYLQMNSLKPEDTAVYDCRVYTRGEYYSWGQGTQVTVSS | high polyreactivity
QVQLVESGGGLVQAGGSLRLTCAASGRIFTTNAMGWYRQAPGKERELVAAITSGASTYADSVKGRVTISRDNAKNTGYLQMNSLKPEDTAVYAESTYNWYYYYWGQGTQVTVSS | low polyreactivity
